Assays:
trx1_yeast TRX1 = molecular target: T1, trx1_yeast TRX1 (UniProt P22217)
T1 sequence: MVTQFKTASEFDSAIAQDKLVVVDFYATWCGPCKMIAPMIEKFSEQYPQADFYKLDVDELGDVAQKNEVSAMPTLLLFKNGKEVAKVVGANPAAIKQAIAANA

trx2_yeast TRX2 = molecular target: T2, trx2_yeast TRX2 (UniProt P22803)
T2 sequence: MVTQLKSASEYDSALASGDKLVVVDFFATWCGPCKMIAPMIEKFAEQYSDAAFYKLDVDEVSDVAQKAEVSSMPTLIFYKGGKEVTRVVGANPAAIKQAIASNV

With “Phosphoadenosine phosphosulfate reductase (Saccharomyces cerevisiae) (from UniProt P18408) C245S” the “effect of a mutation on the interaction” value (trx1_yeast TRX1) was “decreasing interaction” and the “effect of a mutation on the interaction” value (trx2_yeast TRX2) was “decreasing interaction”.

Reference: IntAct's records for PubMed 16272220
